Results published in patent US20250154198A1, “PEPTIDE INHIBITORS OF INTERLEUKIN-23 RECEPTOR” (Zealand Pharma A/S, priority 2021, published 2025).
*1 amine or outer side, *2 acyl side, *3 side chain or, on linkers, in order; H or OH if unused. Bridges are numbered along the chain shown (N, C = ends). [ ]: non-standard residue; d: D form. 1,3‑dibromopropan‑2‑one = linker (CAS 816-39-7) joining two Cys as 1,3-dithio-propan-2-one bridge -SCH2C(=O)CH2S-; Trp(1-Me) = Cn1cc(C[C@H](N)C(=O)O)c2ccccc21; 2Nal = N[C@@H](Cc1ccc2ccccc2c1)C(=O)O; AEF = NCCOc1ccc(C[C@H](N)C(=O)O)cc1; αMeL = CC(C)C[C@](C)(N)C(=O)O; CH2COCH2 = O=C(C[*:1])C[*:2]; αMeK = C[C@](N)(CCCCN)C(=O)O; 3Amb = NCc1cccc(C(=O)O)c1; Abu = CC[C@H](N)C(=O)O

T1: human IL-23R endogenously expressed on DB cells (CRL-2289) (human, UniProt Q5VWK5 24-629)
T1 sequence (looked up): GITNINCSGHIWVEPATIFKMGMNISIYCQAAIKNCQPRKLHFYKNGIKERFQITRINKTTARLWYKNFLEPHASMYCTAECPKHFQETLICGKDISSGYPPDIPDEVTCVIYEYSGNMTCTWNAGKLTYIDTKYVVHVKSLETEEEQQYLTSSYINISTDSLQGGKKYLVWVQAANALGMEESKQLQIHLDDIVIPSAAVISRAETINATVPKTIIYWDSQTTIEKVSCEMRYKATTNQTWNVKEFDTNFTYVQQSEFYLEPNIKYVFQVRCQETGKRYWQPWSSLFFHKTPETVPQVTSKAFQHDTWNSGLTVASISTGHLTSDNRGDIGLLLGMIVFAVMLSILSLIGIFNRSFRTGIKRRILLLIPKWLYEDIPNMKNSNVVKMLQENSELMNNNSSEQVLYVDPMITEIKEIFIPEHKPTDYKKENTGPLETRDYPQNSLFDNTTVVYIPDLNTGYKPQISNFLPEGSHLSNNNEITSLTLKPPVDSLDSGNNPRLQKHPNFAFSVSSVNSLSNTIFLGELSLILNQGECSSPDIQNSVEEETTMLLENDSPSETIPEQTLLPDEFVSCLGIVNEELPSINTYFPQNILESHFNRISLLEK

T2: Nluc-IL23R fusion protein (human, UniProt Q5VWK5 22-629)
T2 construct: range 22-629; Stably expressed in HEK293 cells; also called hIL-23R; human IL-23R fused to a Nanoluc luciferase enzyme; not shown: Nanoluc luciferase (Promega N1371 plasmid) at the N-terminus
T2 sequence (looked up): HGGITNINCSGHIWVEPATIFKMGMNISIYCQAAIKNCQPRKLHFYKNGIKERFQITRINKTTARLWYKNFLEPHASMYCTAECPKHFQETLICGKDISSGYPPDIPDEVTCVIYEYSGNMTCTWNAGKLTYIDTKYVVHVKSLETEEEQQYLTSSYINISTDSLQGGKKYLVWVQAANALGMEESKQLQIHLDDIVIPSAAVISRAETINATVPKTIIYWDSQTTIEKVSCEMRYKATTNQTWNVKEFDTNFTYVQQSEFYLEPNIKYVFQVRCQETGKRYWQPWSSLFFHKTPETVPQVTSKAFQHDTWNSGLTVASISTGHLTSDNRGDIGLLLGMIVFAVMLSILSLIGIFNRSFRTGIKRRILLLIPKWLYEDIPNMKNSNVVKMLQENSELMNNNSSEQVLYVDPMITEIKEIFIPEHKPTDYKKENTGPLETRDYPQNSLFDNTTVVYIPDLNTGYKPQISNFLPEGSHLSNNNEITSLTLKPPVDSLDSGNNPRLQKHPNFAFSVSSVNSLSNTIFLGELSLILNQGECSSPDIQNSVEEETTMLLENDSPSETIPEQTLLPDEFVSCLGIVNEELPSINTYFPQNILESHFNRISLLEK

B1: Compound 27 (peptide)
peptide: Ac-KSC[Trp(1-Me)]QCW[2Nal]LER-NH2
modifications: lactam 1-10; linker 3-6 via CH2COCH2
SMILES: CC(=O)N[C@H]1CCCCNC(=O)CC[C@@H](C(=O)N[C@@H](CCCNC(=N)N)C(N)=O)NC(=O)[C@H](CC(C)C)NC(=O)[C@H](Cc2ccc3ccccc3c2)NC(=O)[C@H](Cc2c[nH]c3ccccc23)NC(=O)[C@@H]2CSCC(=O)CSC[C@H](NC(=O)[C@H](CO)NC1=O)C(=O)N[C@@H](Cc1cn(C)c3ccccc13)C(=O)N[C@@H](CCC(N)=O)C(=O)N2
B2: Compound 47 (peptide)
peptide: Ac-KSCWQC[AEF][2Nal][αMeL]ER-NH2
modifications: lactam 1-10; linker 3-6 via CH2COCH2
SMILES: CC(=O)N[C@H]1CCCCNC(=O)CC[C@@H](C(=O)N[C@@H](CCCNC(=N)N)C(N)=O)NC(=O)[C@](C)(CC(C)C)NC(=O)[C@H](Cc2ccc3ccccc3c2)NC(=O)[C@H](Cc2ccc(OCCN)cc2)NC(=O)[C@@H]2CSCC(=O)CSC[C@H](NC(=O)[C@H](CO)NC1=O)C(=O)N[C@@H](Cc1c[nH]c3ccccc13)C(=O)N[C@@H](CCC(N)=O)C(=O)N2
B3: Compound 31 (peptide)
peptide: KSCWQCWXLER
HELM: PEPTIDE1{[ac].K.S.C.W.Q.C.W.[O=C([C@H](Cc1ccc(F)cc1)N[*:1])[*:2]].L.E.R.[am]}|CHEM1{[O=C(C[*:1])C[*:2]]}$PEPTIDE1,PEPTIDE1,2:R3-11:R3|PEPTIDE1,CHEM1,4:R3-1:R1|PEPTIDE1,CHEM1,7:R3-1:R2$$$V2.0
SMILES: CC(=O)N[C@H]1CCCCNC(=O)CC[C@@H](C(=O)N[C@@H](CCCNC(=N)N)C(N)=O)NC(=O)[C@H](CC(C)C)NC(=O)[C@H](Cc2ccc(F)cc2)NC(=O)[C@H](Cc2c[nH]c3ccccc23)NC(=O)[C@@H]2CSCC(=O)CSC[C@H](NC(=O)[C@H](CO)NC1=O)C(=O)N[C@@H](Cc1c[nH]c3ccccc13)C(=O)N[C@@H](CCC(N)=O)C(=O)N2
B4: Compound 25 (peptide)
peptide: Ac-KSC[2Nal]QCW[2Nal]LER-NH2
modifications: lactam 1-10; linker 3-6 via CH2COCH2
SMILES: CC(=O)N[C@H]1CCCCNC(=O)CC[C@@H](C(=O)N[C@@H](CCCNC(=N)N)C(N)=O)NC(=O)[C@H](CC(C)C)NC(=O)[C@H](Cc2ccc3ccccc3c2)NC(=O)[C@H](Cc2c[nH]c3ccccc23)NC(=O)[C@@H]2CSCC(=O)CSC[C@H](NC(=O)[C@H](CO)NC1=O)C(=O)N[C@@H](Cc1ccc3ccccc3c1)C(=O)N[C@@H](CCC(N)=O)C(=O)N2
B5: Compound 1 (peptide)
peptide: DCSCWQCWWXCR
modifications: H-DC(1a)SC(2a)WQC(2a)WW[2-Me-Leu]C(1a)R-[NH2]; (1a)=[2,11] and (2a)=[4,7] 1,3-dithio-propan-2-one bridges
B6: Compound 35 (peptide)
peptide: Ac-GCTCWECW[2Nal][αMeL]CR-NH2
modifications: linker 2-11, 4-7 via CH2COCH2
SMILES: CC(=O)NCC(=O)N[C@H]1CSCC(=O)CSC[C@@H](C(=O)N[C@@H](CCCNC(=N)N)C(N)=O)NC(=O)[C@](C)(CC(C)C)NC(=O)[C@H](Cc2ccc3ccccc3c2)NC(=O)[C@H](Cc2c[nH]c3ccccc23)NC(=O)[C@@H]2CSCC(=O)CSC[C@H](NC(=O)[C@H]([C@@H](C)O)NC1=O)C(=O)N[C@@H](Cc1c[nH]c3ccccc13)C(=O)N[C@@H](CCC(=O)O)C(=O)N2
B7: Compound 28 (peptide)
peptide: Ac-DKSCWQC[2Nal][2Nal]LER-NH2
modifications: lactam 2-11; linker 4-7 via CH2COCH2
SMILES: CC(=O)N[C@@H](CC(=O)O)C(=O)N[C@H]1CCCCNC(=O)CC[C@@H](C(=O)N[C@@H](CCCNC(=N)N)C(N)=O)NC(=O)[C@H](CC(C)C)NC(=O)[C@H](Cc2ccc3ccccc3c2)NC(=O)[C@H](Cc2ccc3ccccc3c2)NC(=O)[C@@H]2CSCC(=O)CSC[C@H](NC(=O)[C@H](CO)NC1=O)C(=O)N[C@@H](Cc1c[nH]c3ccccc13)C(=O)N[C@@H](CCC(N)=O)C(=O)N2
B8: Compound 57 (peptide)
peptide: Ac-DETCWQCW[2Nal][αMeL]KR-NH2
modifications: lactam 2-11; linker 4-7 via CH2COCH2
SMILES: CC(=O)N[C@@H](CC(=O)O)C(=O)N[C@H]1CCC(=O)NCCCC[C@@H](C(=O)N[C@@H](CCCNC(=N)N)C(N)=O)NC(=O)[C@](C)(CC(C)C)NC(=O)[C@H](Cc2ccc3ccccc3c2)NC(=O)[C@H](Cc2c[nH]c3ccccc23)NC(=O)[C@@H]2CSCC(=O)CSC[C@H](NC(=O)[C@H]([C@@H](C)O)NC1=O)C(=O)N[C@@H](Cc1c[nH]c3ccccc13)C(=O)N[C@@H](CCC(N)=O)C(=O)N2
B9: Compound 40 (peptide)
peptide: [3Amb]SCWQCW[2Nal][αMeL]ER-NH2
modifications: lactam N-10; linker 3-6 via CH2COCH2
SMILES: CC(C)C[C@]1(C)NC(=O)[C@H](Cc2ccc3ccccc3c2)NC(=O)[C@H](Cc2c[nH]c3ccccc23)NC(=O)[C@@H]2CSCC(=O)CSC[C@H](NC(=O)[C@H](CO)NC(=O)c3cccc(c3)CNC(=O)CC[C@@H](C(=O)N[C@@H](CCCNC(=N)N)C(N)=O)NC1=O)C(=O)N[C@@H](Cc1c[nH]c3ccccc13)C(=O)N[C@@H](CCC(N)=O)C(=O)N2
B10: Compound 32 (peptide)
peptide: KSCWQCWXLER
HELM: PEPTIDE1{[ac].K.S.C.W.Q.C.W.[Cn1cc(C[C@H](N[*:1])C(=O)[*:2])c2ccccc21].L.E.R.[am]}|CHEM1{[O=C(C[*:1])C[*:2]]}$PEPTIDE1,PEPTIDE1,2:R3-11:R3|PEPTIDE1,CHEM1,4:R3-1:R1|PEPTIDE1,CHEM1,7:R3-1:R2$$$V2.0
SMILES: CC(=O)N[C@H]1CCCCNC(=O)CC[C@@H](C(=O)N[C@@H](CCCNC(=N)N)C(N)=O)NC(=O)[C@H](CC(C)C)NC(=O)[C@H](Cc2cn(C)c3ccccc23)NC(=O)[C@H](Cc2c[nH]c3ccccc23)NC(=O)[C@@H]2CSCC(=O)CSC[C@H](NC(=O)[C@H](CO)NC1=O)C(=O)N[C@@H](Cc1c[nH]c3ccccc13)C(=O)N[C@@H](CCC(N)=O)C(=O)N2
B11: Compound 30 (peptide)
peptide: KSCWQCHXLER
HELM: PEPTIDE1{[ac].K.S.C.W.Q.C.H.[O=C([C@H](Cc1ccc2ccccc2c1)N[*:1])[*:2]].L.E.R.[am]}|CHEM1{[O=C(C[*:1])C[*:2]]}$PEPTIDE1,PEPTIDE1,2:R3-11:R3|PEPTIDE1,CHEM1,4:R3-1:R1|PEPTIDE1,CHEM1,7:R3-1:R2$$$V2.0
SMILES: CC(=O)N[C@H]1CCCCNC(=O)CC[C@@H](C(=O)N[C@@H](CCCNC(=N)N)C(N)=O)NC(=O)[C@H](CC(C)C)NC(=O)[C@H](Cc2ccc3ccccc3c2)NC(=O)[C@H](Cc2c[nH]cn2)NC(=O)[C@@H]2CSCC(=O)CSC[C@H](NC(=O)[C@H](CO)NC1=O)C(=O)N[C@@H](Cc1c[nH]c3ccccc13)C(=O)N[C@@H](CCC(N)=O)C(=O)N2

What was measured:
[1] = biological target: T1, human IL-23R endogenously expressed on …; experiment: cell-based or functional assay
[2] = biological target: T2, Nluc-IL23R fusion protein; experiment: BRET displacement of TAMRA-labelled peptide, Nluc-IL23R membranes

Row | Binder | IC50 (pSTAT3) [1] | Ki [2] [µM]
1 | B1 | 15.5 nM | 0.00177
2 | Ac-KSCWQC[AEF][2Nal]LER-NH2 (lactam 1-10; disulfide 3-6) [Compound 54] | – | 0.178
3 | B2 | 17.2 nM | 0.000624
4 | B3 | 968 nM | 0.0763
5 | B4 | > 1 µM | 0.185
6 | B5 | 783 nM | 0.0798
7 | B6 | – | 0.0412
8 | B7 | 27.4 nM | 0.00452
9 | Ac-DESCWQCWWLK-NH2 (lactam 2-11; linker 4-7 via 1,3‑dibromopropan‑2‑one) [Compound 11] | > 1 µM | 0.706
10 | B8 | 167 nM | 0.068
11 | B9 | – | 0.0181
12 | B10 | 118 nM | 0.0142
13 | Ac-ESCWQCWWLK-NH2 (lactam 1-10; linker 3-6 via 1,3‑dibromopropan‑2‑one) [Compound 12] | > 1 µM | 0.373
14 | Ac-[Abu]QTWQC[AEF]W[αMeK]ENG-NH2 (thioether 1-6) [Compound C] | 13.8 nM | 0.00211
15 | B11 | 68.6 nM | 0.00553
